Source: patent US20260217846A1 (University of Texas, published 2026)

B1: Clone 49A 4-1BB antibody (IgG1) (antibody, V domains shown)
VH: VKLQQSGPELVKPGASVKISCKASGYTFTDYYMNWVKESHGKSLEWIGDINPNNGGSTYYNQKFKGKATLTVEKSSSTAFMELRSLTSEDSAVYYCARSLYGSTYYFDYWGQGTPLTVSS
VL: DIVLTQSPASLAVSLGQRATISCKASQSVDYDGDSYMNWYQQKPGQPPKLLIYAASNLESGIPARFSGSGSGTDFTLNIHPVEEEDAGTYYCQQSNDDPWTFGGGTKLEIK
notes: Mouse hybridoma antibody, IgG1
B2: Clone 54 4-1BB antibody (IgG2a) (antibody, V domains shown)
VH: EFQLQQSGPELVKPGASVKISCKASGYSFTDYNMNWVKQSNGKSLEWIGVINPNYGTTSYNQKFKGKATFTVDQSSSTAYMQLNSLTSEDSAVYYCARSPVEDYFDYWGQGTTLTVSS
VL: ENVLTQSPAIMSASPGEKVTMTCRARSSVSSSYLHWYQQKSGASPKLWIYSTSNLASGVPARFSGSGSGTSYSLTISSVEAEDAATYYCQQYSGYPLITFGAGTKLELKR
notes: Mouse hybridoma antibody, IgG2a; also called Curranlumab; hybridoma clone 271-54 41-BB
B3: Clone 138 4-1BB antibody (IgG2b) (antibody, V domains shown)
VH: VQLQESGGGLVKPGGSLKLSCAASGFTFSDYGMHWVRQAPEKGLEWVAYISSGSNSIYYADTVTGRFTISRDNAKNTLFLQMTSLRSEDTAMYYCASNNGYFYFDYWGQGTTLTVSS
VL: IVITQSPAILSASPGEKVTMTCRASSSVSYMHWYQQKPGSSPKPWIYATSNLASGVPARFSGSGSGTSYSLTVSRVEAEDAATYYCQQWSSDPFTFGSGTKLEIK
notes: Mouse hybridoma antibody, IgG2b

The binders below were run against T1, recombinant human 4-1BB (human, UniProt Q07011 24-186, limits assumed) (assay: ELISA titration on recombinant human 4-1BB).
T1 construct: The ELISA antigen is called only 'recombinant human 4-1BB'; also called CD137; TNFSFR

Binding result, binds:
B1
B2
B3
